Measured values published in article PMC12432127, “Assessing the potential of bacterial signal peptides for radiopharmaceutical applications” (Scientific Reports, 2025).
Residues, ends and D or L forms follow the SMILES beside them. Groups on a side chain read outwards from the residue. No end group written: not given here. *: point of attachment. FITC = O=C1OC2(c3ccc(O)cc3Oc3cc(O)ccc32)c2ccc(NC(=S)*)cc21; DOTA = O=C(O)CN1CCN(CC(=O)O)CCN(CC(=O)*)CCN(CC(=O)O)CC1; Ahx = NCCCCCC(=O)O; For = O=C*

Key:
[1] = Stability in human plasma (radio-HPLC); type: in vitro ADME
Method: The radiolabelled compound (50 µL) was added to male human AB plasma (500 µL, Sigma Aldrich, USA, male AB) and incubated at 37 °C. Samples of 100 µL were taken at selected time points. The plasma proteins were precipitated with acetonitrile (-20 °C) and the precipitate was centrifuged for 1 min at 1500 rpm. The supernatant was analyzed by analytical radio-HPLC.

[2] = parameters: species or system mice; details: mouse, in vivo, iv
Method: (§1) All experiments involving animals were performed in accordance with an animal experimentation license approved by the Zurich Cantonal Veterinary Office, Switzerland (Jason P. Holland; license number ZH095/2023), and in compliance with the […] Animal Welfare Act. This study is reported in accordance with the ARRIVE guidelines (https://arriveguidelines.org). Six to eight-week old male NOD/SCID mice (17-20 g) were obtained from Charles River Laboratories (Lyon, France). Mice were provided with food and water ad libitum. For planar scintigraphy imaging and ex vivo biodistribution studies, mice were injected with 100 μL sterile saline formulations of ~ 250 pmol (~ 10 MBq) [^177Lu]Lu-[…] by intravenous tail-vein injection and anesthetized with isoflurane (2-4% in air). Imaging was performed on Gamma-eye scanner (Bioemtech, Greece) at 5 min and 1 h p.i. Directly after imaging at 1 h p.i., animals were euthanised by isoflurane asphyxiation followed by terminal exsanguination. A total of 13 tissues were removed, rinsed in water, dried in air for approx. 2 min., weighed and counted on a calibrated gamma counter for accumulation of activity. The mass of radiotracer formulation injected into each animal was measured and used to determine the total number of counts per minute (cpm) injected into each mouse by comparison to a standard syringe of known activity and mass.

in vivo = assay: in vivo; parameters: species or system mice; details: male, NOD/SCID, mouse, iv, 250 pmol, total radioactivity
Method: as §1

FPR1 = target: T1, FPR1 (Homo sapiens, UniProt P21462); assay: Cell internalization of radiotracer, FPR1 transfected HEK293T cells; type: cell-based; details: 1000-fold excess, all time points
T1 construct: expressed in transfected cells; host or cells: HEK293T (transient, jetPEI)
T1 sequence (P21462 1-350): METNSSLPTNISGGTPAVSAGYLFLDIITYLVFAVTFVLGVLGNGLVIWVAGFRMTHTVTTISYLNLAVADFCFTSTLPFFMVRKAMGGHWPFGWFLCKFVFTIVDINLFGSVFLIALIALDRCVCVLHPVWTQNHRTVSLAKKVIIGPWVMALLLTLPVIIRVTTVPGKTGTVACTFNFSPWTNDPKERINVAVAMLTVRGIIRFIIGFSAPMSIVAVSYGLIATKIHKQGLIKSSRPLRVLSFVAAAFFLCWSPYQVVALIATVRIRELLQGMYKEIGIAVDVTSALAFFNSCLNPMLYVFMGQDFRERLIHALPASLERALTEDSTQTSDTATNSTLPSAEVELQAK
Method: The medium was removed from the wells and replaced by fresh complete growth medium (1.3 mL per well). The inhibitor solution BOC-FLFLF (1000-fold excess against the radiotracer, in PBS/DMSO) was added to the wells in the bottom row (100 µL per well). A solution of PBS and DMSO in the same ratio as the inhibitor solution was added to the wells of the top row (100 µL per well). To each well, the radiotracer solution in the desired concentration was added (100 µL per well). The plate was incubated at 37 °C for the time specified for each experiment. The supernatant was removed, and the cells were placed on ice and rinsed twice with ice cold PBS (1 mL per well). Sodium hydroxide (1 M, 2 × 1 mL) was added to detach the cells and the suspension was collected in counting tubes. The tubes were analyzed with an HIDEX gamma counter (HIDEX, Turku, Finland) using the appropriate detection window for the corresponding radionuclide.

[3] = target: T2, f-MVPIK(FITC)I bacterial signal peptide derivative; assay: confocal fluorescence binding to transfected HEK293T cells
T2 chain: For-MVPIK(FITC)I

[4] = target: T3, f-MVPIK(TAMRA)I bacterial signal peptide derivative; assay: as above
T3 chain: For-MVPIK(TAMRA)I

## CC[C@H](C)[C@H](NC(=O)[C@H](CCCCNC(=O)CCCCCNC(=O)CN1CCN(CC(=O)O)CCN(CC(=O)O)CCN(CC(=O)O)CC1)NC(=O)[C@@H](NC(=O)[C@@H]1CCCN1C(=O)[C@@H](NC(=O)[C@H](CCSC)NC=O)C(C)C)[C@@H](C)CC)C(=O)O [[^177Lu]Lu-f-MVPIK(Ahx-DOTA)I, metal not drawn] (For-MVPIK([Ahx-DOTA])I-OH)
[1]
  more hydrophilic fragment (partial degradation): 24%
  state of conjugate in human plasma: completely oxidized
[2]
  location of administered activity in scintigraphy images: the majority of the administered activity was found in the bladder
  residual activity in scintigraphy images: only minimal residual activity
In vivo; biodistribution blood
  tissue uptake at 1 h: 0.12 ± 0.02 %ID/g
In vivo; biodistribution bone
  tissue uptake at 1 h: 0.75 ± 0.13 %ID/g
In vivo; biodistribution heart
  tissue uptake at 1 h: 0.09 ± 0.01 %ID/g
In vivo; biodistribution lg intestine
  tissue uptake at 1 h: 0.32 ± 0.12 %ID/g
In vivo; biodistribution lungs
  tissue uptake at 1 h: 0.79 ± 0.12 %ID/g
In vivo; biodistribution muscle
  tissue uptake at 1 h: 0.18 ± 0.03 %ID/g
In vivo; biodistribution pancreas
  tissue uptake at 1 h: 0.1 ± 0.02 %ID/g
In vivo; biodistribution skin
  tissue uptake at 1 h: 0.49 ± 0.08 %ID/g
In vivo; biodistribution sm intestine
  tissue uptake at 1 h: 0.45 ± 0.09 %ID/g
In vivo; biodistribution stomach
  tissue uptake at 1 h: 0.17 ± 0.05 %ID/g
In vivo; uptake kidneys
  tissue uptake at 1 h: 3.35 ± 0.19 %ID/g
In vivo; uptake liver
  tissue uptake at 1 h: 3.02 ± 0.23 %ID/g
In vivo; uptake spleen
  tissue uptake at 1 h: 4.43 ± 0.38 %ID/g

## BOC-FLFLF
FPR1
  effect of blocking agent on cell-bound activity of the radiotracer: considerably reduced the cell-bound activity

B1: FPR1 (protein)
chain: T1 sequence (P21462 1-350)
[3]
  Kd: 1.1 nM
[4]
  Kd: 3.8 nM
